How the values were obtained:
[1] = target: Fluc-Ec2 (E. coli (virulence plasmid)) (UniProt Q6J5N4); assay: SEC-MALS; SEC with static light scattering, refractive index and UV detectors; Superdex-75 in 400 mM NaF, 10 mM MES pH 6.5, 5 mM DM (detergent micelles)
[2] = target: the molecule itself; assay: single-molecule TIRF photobleaching; Cy5-labeled protein reconstituted at very low density (0.15 µg/mg lipid) in liposomes adhered to glass; counting of bleaching steps
[3] = target: the molecule itself; assay: cross-linking; ~0.1 mg/ml purified protein in 20 mM MOPS pH 7.5, 100 mM NaCl, 10 mM NaF, 5 mM DM with 0.125% glutaraldehyde for 5-120 min; 15% SDS-PAGE

## Fluc-Ec2 (from UniProt Q6J5N4 1-126) (natural protein)
[1]
  stoichiometry N: 2

B1: Fluc-Bpe R29C labeled with Cy5-maleimide (natural protein)
chain: MLTYAPLNFIAIGIGATLGAWLRWVLGLCLNGAGWPWGTLTANLVGGYLIGVMVALIASHPEWPAWIRLAAVTGFLGGLTTFSTFSAETVDMLERGVYATAAAYAGASLAGSLAMTGLGLATVRLLLR
modifications: Cy5-maleimide on the unique cysteine R29C (labeling efficiency 72%)
notes: Fluc homologue Bpe from Bordatella pertussis (so in the source), NCBI NP_879990.1, naturally cysteine-free, with a single cysteine substitution; source: E. coli BL21-DE3, purified, labeled with Cy5-maleimide, reconstituted into liposomes at 0.15 µg/mg lipid
[2]
  stoichiometry N: 2

B2: Fluc-Bpe T3C labeled with Cy5-maleimide (natural protein)
chain: MLCYAPLNFIAIGIGATLGAWLRWVLGLRLNGAGWPWGTLTANLVGGYLIGVMVALIASHPEWPAWIRLAAVTGFLGGLTTFSTFSAETVDMLERGVYATAAAYAGASLAGSLAMTGLGLATVRLLLR
modifications: Cy5-maleimide on the unique cysteine T3C (labeling efficiency 62%)
notes: as for B1
[2]
  binding result: binds

B3: Fluc-Bpe R29K (natural protein)
chain: MLTYAPLNFIAIGIGATLGAWLRWVLGLKLNGAGWPWGTLTANLVGGYLIGVMVALIASHPEWPAWIRLAAVTGFLGGLTTFSTFSAETVDMLERGVYATAAAYAGASLAGSLAMTGLGLATVRLLLR
notes: Fluc homologue Bpe from Bordatella pertussis (so in the source), NCBI NP_879990.1, lysine-less, with a single lysine in loop 1
[3]
  binding result: binds

B4: Fluc-Bpe R95K (natural protein)
chain: MLTYAPLNFIAIGIGATLGAWLRWVLGLRLNGAGWPWGTLTANLVGGYLIGVMVALIASHPEWPAWIRLAAVTGFLGGLTTFSTFSAETVDMLEKGVYATAAAYAGASLAGSLAMTGLGLATVRLLLR
notes: Fluc homologue Bpe from Bordatella pertussis (so in the source), NCBI NP_879990.1, lysine-less, with a single lysine in loop 3
[3]
  binding result: binds

From PMC3755343, “A family of fluoride-specific ion channels with dual-topology architecture” (eLife, 2013)
